Changes are numbered by the printed parent chain.
T1: hiR2-FL-E557D-T7 (human, UniProt Q6PJF5 1-856)
T1 sequence: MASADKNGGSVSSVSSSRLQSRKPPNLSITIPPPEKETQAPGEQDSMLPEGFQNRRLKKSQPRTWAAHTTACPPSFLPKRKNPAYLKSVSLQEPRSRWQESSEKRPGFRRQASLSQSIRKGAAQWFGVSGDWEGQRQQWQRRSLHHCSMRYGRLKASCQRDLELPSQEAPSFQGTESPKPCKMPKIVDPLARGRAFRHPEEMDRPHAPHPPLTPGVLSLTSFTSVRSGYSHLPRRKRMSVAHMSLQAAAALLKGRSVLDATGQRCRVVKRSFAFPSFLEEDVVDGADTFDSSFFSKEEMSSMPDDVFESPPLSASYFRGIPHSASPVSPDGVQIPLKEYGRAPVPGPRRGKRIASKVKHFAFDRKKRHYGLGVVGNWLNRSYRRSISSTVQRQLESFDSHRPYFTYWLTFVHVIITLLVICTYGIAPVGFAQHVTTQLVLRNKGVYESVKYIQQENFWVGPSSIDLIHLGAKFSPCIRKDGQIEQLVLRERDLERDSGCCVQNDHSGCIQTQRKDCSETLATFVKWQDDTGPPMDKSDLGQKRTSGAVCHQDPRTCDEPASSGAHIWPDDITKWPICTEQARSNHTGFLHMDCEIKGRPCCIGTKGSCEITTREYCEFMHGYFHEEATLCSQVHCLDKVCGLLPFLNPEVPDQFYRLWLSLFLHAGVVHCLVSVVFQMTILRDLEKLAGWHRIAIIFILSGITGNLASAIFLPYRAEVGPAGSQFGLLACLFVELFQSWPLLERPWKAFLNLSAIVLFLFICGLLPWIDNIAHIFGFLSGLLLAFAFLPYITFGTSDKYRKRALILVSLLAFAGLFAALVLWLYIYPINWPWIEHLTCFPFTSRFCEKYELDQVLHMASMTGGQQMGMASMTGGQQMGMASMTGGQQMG

T2: hiR2-FL-Q527P-T7 (human, UniProt Q6PJF5 1-856)
T2 sequence: T1 sequence with Q527P, D557E

B1: antibody 34 (antibody, V domains shown)
VH: QVTLKESGPGILQPSQTLSLTCSFSGFSLSTFSLGVGWIRQSSGKGLEWLAHIWWDDEKYYNPALKSRLTISKDTSKNQVFLKIANVDAADTATYYCARAYYSKSYYALDYWGQGTSVTVSS
VL: DIQMTQSPSSLSASLGERVSLTCRASQEISGYLSWLQQKPDGTIKRLIYAASTLDSGVPKRFSGSRSGSDYSLAISSLESEDFADYYCLQYANFPFTFGSGTKLEIK
notes: mouse IgG, kappa light chain; also called clone #34; purified antibody 34
B2: antibody 3 (antibody, V domains shown)
VH: QVTLKESGPGILQPSQTLSLTCSFSGFSLTTFAMGIGWVRQPSGKGLEWLAHIWWDGEKYNNPVLKSRLTISKDTSKNQVFLRIANVDTPDTATYYCARISSIYYIIDNWGQGTSVTVSS
VL: DIVLTQSPATLSVTPGHSVSLSCRASQSISNNLHWYQKKSHESPRLLIKYVSQSISGIPSRFSGSGSGTDFTLSINSVETEDFGMYFCQQSYNWPLTFGAGTKLELK
notes: mouse IgG, kappa light chain; also called clone #3; purified antibody 3
B3: antibody 5 (antibody, V domains shown)
VH: QVTLKESGPGILQPSQTLSLTCSFSGFSLSTFGMGVGWIRQPSGKGLEWLAHIWWDDEKYYNSALKSRLTISKATSKNQAFLKIANVDTADTATYYCARISNYGSNYWYFNVWGTGTTVTVSS
VL: QVVLTQSPALMSASPGEKVTMTCSAGSSVSCMYWYQQKPGSSPRVLIYDTSNLASGVPARFTGSGSGTSYSLTISRMEAEDAASYYCQQWNSYPLTFGAGTKLELK
notes: mouse IgG, kappa light chain; also called clone #5; purified antibody 5
B4: antibody 42 (antibody, V domains shown)
VH: B3 VH with F24L, M34R, S63P, A74D, A80V, K83R, S101Q, N111D
VL: LIVLTQSPAIMSASPGEKVTMTCGATSRISYMFWYQQKPGSSPRVLIYDTSNLASGVPVRFSGSGSGTSYSLTISRVEAEDVATYYCQQWNSYPLTFGAGTKLELK
notes: mouse IgG, kappa light chain; also called clone #42; purified antibody 42
B5: antibody 43 (antibody, V domains shown)
VH: B3 VH with T3A, P42S, H52N, E58D, S63P, A74D, T75A, S101G, N111D
VL: B4 VL with L1Q, K18R, G24S, T26N, F33Y, V45L, V77M, V82A, Y86N, N91S
notes: mouse IgG, kappa light chain; also called clone #43; purified antibody 43
B6: antibody 44 (antibody, V domains shown)
VH: B3 VH with G44E, E58D, S63P, A74D, A80I, A85T, D91E, A98S, S101G, N111D
VL: QIVLTQSPAVMSASPGEKVTMTCTASSSVYYMYWYQQTPGSSPRLLIYDTSNLASGVPVRFSGSGSGTSYSLTISRMEAEDAATYYCQQWNTYPLTFGAGTKLELK
notes: mouse IgG, kappa light chain; also called clone #44; purified antibody 44
B7: antibody 22 (antibody, V domains shown)
VH: B3 VH with A80V
VL: B3 VL with C31Y, S84T
notes: mouse IgG, kappa light chain; also called clone #22; purified antibody 22
B8: antibody 48 (antibody, V domains shown)
VH: QVQLQQSGTELVRPGTSVKVSCKASGYAFTNYLIEWVKQRPGQGLEWIGVINPGSGFTKYNEKFKGKATLTADKSSSTVYMHLSSLTSEDSAVYFCARGLYRAMDYWGQGTSVTVSS
VL: DIQMTQSPASQSASLGESVTITCLASQTIATWLAWYQQKPGKSPQLLIYGATTLADGVPSRFSGGGSGTKFSFKISSLQAEDFVSYYCQQLYSTPYTFGGGTKLEIK
notes: mouse IgG, kappa light chain; also called clone #48; purified antibody 48
B9: antibody 50 (antibody, V domains shown)
VH: B8 VH with T9A, T16A, T30S, V79A, H82Q
VL: B8 VL with A30G, G50A, T52A, T53S, S85N, L91I
notes: mouse IgG, kappa light chain; also called clone #50; purified antibody 50

Molecular target: T1, hiR2-FL-E557D-T7
Assay: FACS, MEF-DKO cells, 3 µg/ml
From the text: (§1) In brief, immortalized MEF-DKO-hiR2-FL-G498A-T7, MEF-DKO-hiR2-FL-Q502R-T7, MEF-DKO-hiR2-FL-I509V-T7, MEF-DKO-hiR2-FL-Q512S-T7, MEF-DKO-hiR2-FL-R513E-T7, MEF-DKO-hiR2-FL-K514E-T7, MEF-DKO-hiR2-FL-D515E-T7, MEF-DKO-hiR2-FL-E518S-T7, MEF-DKO-hiR2-FL-T522V-T7, MEF-DKO-hiR2-FL-F523W-T7, MEF-DKO-hiR2-FL-Q527P-T7, MEF-DKO-hiR2-FL-D528I-T7, MEF-DKO-hiR2-FL-D529H-T7, MEF-DKO-hiR2-FL-T530P-T7, MEF-DKO-hiR2-FL-G531S-T7, MEF-DKO-hiR2-FL-P532A-T7, MEF-DKO-hiR2-FL-M534-T7, MEF-DKO-hiR2-FL-D535-T7, MEF-DKO-hiR2-FL-K536-T7, MEF-DKO-hiR2-FL-S537E-T7, MEF-DKO-hiR2-FL-D538L-T7, MEF-DKO-hiR2-FL-L539A-T7, MEF-DKO-hiR2-FL-Q541H-T7, MEF-DKO-hiR2-FL-T544Q-T7, MEF-DKO-hiR2-FL-S545F-T7, MEF-DKO-hiR2-FL-A547S-T7, MEF-DKO-hiR2-FL-T555V-T7, MEF-DKO-hiR2-FL-E557D-T7, MEF-DKO-hiR2-FL-A560S-T7 and MEF-DKO-hiR2-FL-S562E-T7 cells were harvested with 10 mM EDTA in PBS, washed and resuspended in FACS buffer (PBS, 3% FBS, 0.05% sodium azide), and seeded in Nunc U-bottom 96-well plates (Thermo Fisher Scientific, USA) at approximately 3×10⁵ cells per well. To pellet cells and remove supernatants, the plates were centrifuged at 1,500 rpm and 4° C. for 3 minutes. For primary staining, cells were resuspended in 100 μl per well of either FACS buffer alone (controls) or the purified antibodies 3, 5, 16, 22, 34, 42, 43, 44, 48, and 50 of the invention at 3 μg/ml in FACS buffer and incubated on ice for 1 hour. Afterwards, plates were centrifuged at 1,500 rpm and 4° C. for 3 minutes and washed twice with 200 μl per well of FACS buffer. For secondary staining, cells were spun down and resuspended in 100 μl per well of PE-conjugated goat anti-mouse IgG F(ab′)2 detection fragment (Dianova, Germany) diluted 1:100 in FACS buffer. Protected from light, the cell suspensions were incubated on ice for 1 hour. Plates were then centrifuged at 1,500 rpm and 4° C. for 3 minutes and washed three times with 200 μl per well of FACS buffer. Finally, cells were resuspended in 150 μl per well of FACS buffer and analyzed using a BD Accuri™ C6 Plus flow cytometer (Becton Dickinson, Germany).

Binder	loss of binding vs wild type [%]
B1	≥ 60
B2	≥ 60
B3	≥ 60
B4	≥ 30
B5	≥ 30
B6	≥ 30
B7	≥ 30
B8	≥ 30
B9	≥ 30

Molecular target: T2, hiR2-FL-Q527P-T7
Assay: FACS, MEF-DKO cells, 3 µg/ml
From the text: as §1

Binder	loss of binding vs wild type [%]
B2	≥ 30
B3	≥ 60
B4	≥ 30
B5	≥ 60
B6	≥ 60
B8	≥ 30
B9	≥ 30

Source: patent US20240287172A1 (SCIRHOM, published 2024)
